T1: recombinant IL-3Rα ectodomain (human, UniProt P26951 19-305)
T1 construct: extracellular domain; also called recombinant IL-3Ra; biotinylated-IL-3Rα ectodomain
T1 sequence (looked up): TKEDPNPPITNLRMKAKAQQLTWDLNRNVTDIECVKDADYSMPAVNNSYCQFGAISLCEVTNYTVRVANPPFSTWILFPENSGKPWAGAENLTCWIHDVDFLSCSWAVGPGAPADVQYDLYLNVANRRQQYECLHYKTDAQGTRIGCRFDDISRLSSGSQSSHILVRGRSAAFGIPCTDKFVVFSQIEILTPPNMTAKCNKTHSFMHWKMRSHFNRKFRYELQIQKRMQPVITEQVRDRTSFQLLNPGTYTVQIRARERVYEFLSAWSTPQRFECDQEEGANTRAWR

T2: recombinant human CEACAM5 (human, UniProt P06731 35-685)
T2 construct: also called hCEACAM-5; R&D Systems 4128-CM
T2 sequence (looked up): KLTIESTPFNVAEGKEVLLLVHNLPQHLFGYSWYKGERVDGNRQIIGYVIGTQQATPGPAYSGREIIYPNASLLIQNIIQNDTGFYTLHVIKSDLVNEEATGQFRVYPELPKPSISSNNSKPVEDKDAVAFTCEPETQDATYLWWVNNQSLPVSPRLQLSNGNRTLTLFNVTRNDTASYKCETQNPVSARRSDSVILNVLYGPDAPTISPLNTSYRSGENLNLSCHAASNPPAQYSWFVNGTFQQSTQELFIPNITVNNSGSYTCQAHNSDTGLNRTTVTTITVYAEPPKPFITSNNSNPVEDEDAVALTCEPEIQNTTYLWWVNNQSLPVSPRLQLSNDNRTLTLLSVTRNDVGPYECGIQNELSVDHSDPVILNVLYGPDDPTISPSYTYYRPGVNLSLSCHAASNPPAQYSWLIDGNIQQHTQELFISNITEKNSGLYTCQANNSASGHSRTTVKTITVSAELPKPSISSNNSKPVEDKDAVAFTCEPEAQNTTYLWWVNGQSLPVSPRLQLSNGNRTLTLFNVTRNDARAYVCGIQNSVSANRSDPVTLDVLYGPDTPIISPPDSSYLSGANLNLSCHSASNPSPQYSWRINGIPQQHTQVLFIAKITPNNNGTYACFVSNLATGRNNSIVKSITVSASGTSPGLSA

B1: cAbLys3 (VHH)
VHH: DVQLQASGGGSVQAGGSLRLSCAASGYTIGPYCMGWFRQAPGKEREGVAAINMGGGITYYADSVKGRFTISQDNAKNTVYLLMNSLEPEDTAIYYCAADSTIYASYYECGHGLSTGGYGYDSWGQGTQVTVSS
notes: also called irrelevant control Nanobody directed to lysozyme
B2: 57A07-35GS-14D09 (bispecific antibody)
chain: EVQLVESGGGLVQAGGSLRLSCAASGSIFSGNVMGWYRRQAPGKEREWVAAIASGGSIYYRDSVKGRFTISRDNAKNTVYLQMNSLKPEDTAVYYCNSHPPTLPYWGQGTLVTVSSGGGGSGGGGSGGGGSGGGGSGGGGSGGGGSGGGGSEVQLVESGGGLVQAGGSLRLSCVASGISSSKRNMGWYRQAPGKQRESVATISSGGNKDYTDAVKDRFTISRDTTKNTVYLQMNSLKPEDTAVYYCKIEAGTGWATRRGYTYWGQGTLVTVSS
notes: FLAG3-His6 also made; also called CD123#1-CXCR4#1; 57A07-14D09
B3: 55B04 (VHH)
VHH: EVQLVESGGGLVQPGGSLRLSCAASGINFRFNSMGWWRRRAPGKEREWVAAITSGDITNYRDSVRGRFTISRDNVKNTVYLQMNTLKLEDTAVYYCNTFPPIADYWGLGTQVTVSS
B4: 50F07 (VHH)
VHH: EVQLVESGGGLVQPGGSLRLSCTGSGSTFSINAMGWYRQAPGKQRELVAAITSGGRTNYADSVKGRFTISRDNSKNTVYLQMNSLRPEDTAVYYCNARISAGTAFWLWSDYEYWGLGTLVTVSS
B5: 03F11-25GS-281F12 (bispecific antibody)
chain: EVQLVESGGGSVQPGGSLTLSCGTSGRTFNVMGWFRQAPGKEREFVAAVRWSSTGIYYTQYADSVKSRFTISRDNAKNTVYLEMNSLKPEDTAVYYCAADTYNSNPARWDGYDFRGQGTQVTVSSGGGGSGGGGSGGGGSGGGGSGGGGSEVQLVESGGGLVQAGDSLRLSCAASGRAFSRYAMGWFRQAPGKEREFVAAIGWGPSKTNYADSVKGRFTISRDNAKNTVYLQMNTLKPEDTAVYSCAAKFVNTDSTWSRSEMYTYWGQGTQVTVSS
B6: 55C05 (VHH)
VHH: EVQLVESGGGLVPAGDSLRLSCVASGRSLNTYTMGWFRQAPGKECEFVAAINWNGVYRDYADSAKGRFTASRDNAMNTVFLQMNSLKPEDTAVYFCATATQGWDRHTEPSDFGSWGLGTQVTVSS
B7: 14D09-35GS-57A07 (bispecific antibody)
chain: EVQLVESGGGLVQAGGSLRLSCVASGISSSKRNMGWYRQAPGKQRESVATISSGGNKDYTDAVKDRFTISRDTTKNTVYLQMNSLKPEDTAVYYCKIEAGTGWATRRGYTYWGQGTLVTVSSGGGGSGGGGSGGGGSGGGGSGGGGSGGGGSGGGGSEVQLVESGGGLVQAGGSLRLSCAASGSIFSGNVMGWYRRQAPGKEREWVAAIASGGSIYYRDSVKGRFTISRDNAKNTVYLQMNSLKPEDTAVYYCNSHPPTLPYWGQGTLVTVSS
notes: also made with FLAG3-His6 in Pichia; also called CXCR4#1-CD123#1; 14D09-57A07
B8: 55A01-35GS-14D09 (bispecific antibody)
chain: EVQLVESGGGSVQAGGSLRLSCTTSGRALNMYVMGWFRQAPGNEREFVAATSSSGGSTSYPDSVKGRFTISRDNAKNTVYLQMNSLKPEDTAAYRCAASPYVSTPTMNILEEYRYWGQGTLVTVSSGGGGSGGGGSGGGGSGGGGSGGGGSGGGGSGGGGSEVQLVESGGGLVQAGGSLRLSCVASGISSSKRNMGWYRQAPGKQRESVATISSGGNKDYTDAVKDRFTISRDTTKNTVYLQMNSLKPEDTAVYYCKIEAGTGWATRRGYTYWGQGTLVTVSS
notes: FLAG3-His6 also made; also called CD123#2-CXCR4#1; 55A01-14D09
B9: 55F03 (VHH)
VHH: EVQLVESGGGLVQAGGPLRLSCAASGRTFSSYVMGWFRQAPGKEREFVAAIYWSNGKTQYTDSVKGRFTISGDNAKNTVYLQMNSLNPEDTAVYYCVADKDETGFRTLPIAYDYWGLGTQVTVSS
B10: 51D09 (VHH)
VHH: EVQLVESGGGLVQPGGSLRLSCAASGSIFSGNTMGWYRQAPGKQRELVAAISSGGSTDYADSVKGRFTISRDNSKNTVYLQMNSLRPEDTAVYYCNAAILLYRLYGYEEGDYWGLGTLVTVSS
B11: 281F12-35GS-57A07 (bispecific antibody)
chain: EVQLVESGGGLVQAGDSLRLSCAASGRAFSRYAMGWFRQAPGKEREFVAAIGWGPSKTNYADSVKGRFTISRDNAKNTVYLQMNTLKPEDTAVYSCAAKFVNTDSTWSRSEMYTYWGQGTLVTVSSGGGGSGGGGSGGGGSGGGGSGGGGSGGGGSGGGGSEVQLVESGGGLVQAGGSLRLSCAASGSIFSGNVMGWYRRQAPGKEREWVAAIASGGSIYYRDSVKGRFTISRDNAKNTVYLQMNSLKPEDTAVYYCNSHPPTLPYWGQGTLVTVSS
notes: FLAG3-His6 also made; also called CXCR4#2-CD123#1; 281F12-57A07
B12: 03F11-9GS-281F12 (bispecific antibody)
chain: EVQLVESGGGSVQPGGSLTLSCGTSGRTFNVMGWFRQAPGKEREFVAAVRWSSTGIYYTQYADSVKSRFTISRDNAKNTVYLEMNSLKPEDTAVYYCAADTYNSNPARWDGYDFRGQGTQVTVSSGGGGSGGGGSEVQLVESGGGLVQAGDSLRLSCAASGRAFSRYAMGWFRQAPGKEREFVAAIGWGPSKTNYADSVKGRFTISRDNAKNTVYLQMNTLKPEDTAVYSCAAKFVNTDSTWSRSEMYTYWGQGTQVTVSS
B13: CEA#2 (VHH)
VHH: EVQLVESGGGLVQPGGSLRLSCAASGDTYGSYWMGWFRQAPGQGLEAVAAINRGGGYTVYADSVKGRFTISRDNSKNTLYLQMNSLRAEDTAVYYCAASGVLGGLHEDWFNYWGQGTLVTVSS
notes: also called T023200002; humanised variant of NbCEA5

What was measured:
[1] = target: T3, human IL12Rβ1, cell-expressed (human, UniProt P42701 24-662); assay: flow cytometry on isolated CD8+ T cells of donor D863, anti-Flag detection
T3 construct: whole, on cells; in the context of the heterodimeric receptor; also called IL12Rb1

[2] = target: T1, recombinant IL-3Rα ectodomain; assay: ELISA on recombinant IL-3Ra ectodomain (lower right panel)
[3] = target: human CXCR4 (on cells, viral lipoparticles or membrane extracts) (human, UniProt P61073 1-352); assay: cell-based or functional assay
[4] = target: T1, recombinant IL-3Rα ectodomain; assay: SPR ProteOn, immobilised IL-3Rα ectodomain
[5] = target: T4, human IL-3Rα (CD123), cell-expressed (human, UniProt P26951 19-378); assay: FACS, MOLM-13 cells
T4 construct: whole, on cells; also called IL-3Ra; Hek-IL-3Rα

[6] = target: T4, human IL-3Rα (CD123), cell-expressed; assay: flow cytometry on Molm-13 cells; EC50(M) printed in the legend box beside the curves
[7] = target: T1, recombinant IL-3Rα ectodomain; assay: competition ELISA, coated mAb 7G3 + biotinylated IL-3Rα ectodomain
[8] = target: CXCR4 and CD4 co-expressed on cells (MOLM-13, THP-1, MT-4, PBMC; Jurkat CD4 low) (human, UniProt P61073 1-352; P01730 26-458); assay: cell-based or functional assay
[9] = target: T1, recombinant IL-3Rα ectodomain; assay: ELISA on recombinant IL-3Ra ectodomain (panel 'IL-3Ra ELISA', lower left)
[10] = target: T2, recombinant human CEACAM5; assay: SPR Biacore T100, immobilised hCEACAM-5

Sequence of CXCR4 and CD4 co-expressed on cells (MOLM-13, THP-1, MT-4, PBMC; Jurkat CD4 low) (P61073 whole entry, chain 1 of 2, other chains not shown, the tested form may be a part): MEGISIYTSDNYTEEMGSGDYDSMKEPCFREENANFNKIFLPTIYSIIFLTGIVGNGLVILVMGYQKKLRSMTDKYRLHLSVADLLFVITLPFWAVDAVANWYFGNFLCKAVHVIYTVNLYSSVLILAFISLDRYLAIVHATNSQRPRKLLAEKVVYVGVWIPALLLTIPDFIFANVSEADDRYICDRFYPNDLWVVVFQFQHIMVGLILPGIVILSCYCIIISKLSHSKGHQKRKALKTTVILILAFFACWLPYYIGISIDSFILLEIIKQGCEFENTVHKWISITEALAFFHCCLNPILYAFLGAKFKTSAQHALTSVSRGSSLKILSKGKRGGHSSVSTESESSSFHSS
Sequence of human CXCR4 (on cells, viral lipoparticles or membrane extracts) (P61073 whole entry, the tested form may be a part): as the sequence (P61073 whole entry, chain 1 of 2, other chains not shown, the tested form may be a part) above
T4 sequence (P26951 19-378): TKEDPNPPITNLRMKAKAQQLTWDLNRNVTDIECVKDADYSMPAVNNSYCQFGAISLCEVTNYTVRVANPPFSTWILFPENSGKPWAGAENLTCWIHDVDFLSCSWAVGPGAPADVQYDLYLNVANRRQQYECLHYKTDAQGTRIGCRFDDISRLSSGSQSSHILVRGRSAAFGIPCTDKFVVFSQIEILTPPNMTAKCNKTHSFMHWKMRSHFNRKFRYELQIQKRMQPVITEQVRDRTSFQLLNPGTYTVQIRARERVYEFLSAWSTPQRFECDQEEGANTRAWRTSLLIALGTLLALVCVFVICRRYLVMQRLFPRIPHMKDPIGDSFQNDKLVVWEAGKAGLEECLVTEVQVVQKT

Binder | IC50, CXCL-12 chemotaxis, Jurkat E6-1 [3] [nM] | Kd [4] [nM] | koff [4] [s⁻¹] | kon [4] [M⁻¹ s⁻¹] | EC50 [5] [nM] | EC50 [6] [nM] | other results
B1 |  |  |  |  |  |  | binding result [1]: no binding (tested: 250 nM)
B2 | 210 |  |  |  |  |  | EC50 (read off the curve) [2]: ~0.5 nM; Fold inc. vs CXCR4#1, Jurkat E6-1 [3]: 0.05 fold
B3 |  | 15.8 | 0.00794 | 504000 | 51.2 | 1300 | IC50 [7]: 55 nM
B4 |  | 74.2 | 0.00758 | 102000 | 14.6 | 66 | IC50 [7]: 230 nM
B5 |  |  |  |  |  |  | IC50, HIV-1 BaL (R5), PBMC [8]: 383 nM; IC50, HIV-1 NL4.3 (X4), MT-4 [8]: 9.22 nM; IC50, HIV-1 NL4.3 (X4), PBMC [8]: 8.67 nM; IC50, HIV-1 NL4.3 (X4), U87 [8]: > 3330 nM
B6 |  | 59 | 0.00741 | 126000 | 31.2 | 4100 | IC50 [7]: 190 nM
B7 | 15 |  |  |  |  |  | EC50 (read off the curve) [2]: ~0.5 nM; Fold inc. vs CXCR4#1, Jurkat E6-1 [3]: 0.69 fold; Fold inc. vs CXCR4#1, MOLM-13 [3]: 2.39 fold; IC50, CXCL-12 chemotaxis, MOLM-13 [3]: 3.6 nM
B8 | 85 |  |  |  |  |  | EC50 (read off the curve) [9]: ~1 nM; Fold inc. vs CXCR4#1, Jurkat E6-1 [3]: 0.12 fold; Fold inc. vs CXCR4#1, MOLM-13 [3]: 0.03 fold; IC50, CXCL-12 chemotaxis, MOLM-13 [3]: 290 nM
B9 |  | 115 | 0.00487 | 42500 | 113 | 350 | 
B10 |  | 13.6 | 0.000516 | 37800 | 15.3 | 16 | 
B11 | 38 |  |  |  |  |  | EC50 (read off the curve) [2]: ~0.5 nM; Fold inc. vs CXCR4#2, Jurkat E6-1 [3]: 2.55 fold; Fold inc. vs CXCR4#2, MOLM-13 [3]: 12.6 fold; IC50, CXCL-12 chemotaxis, MOLM-13 [3]: 6.83 nM
B12 |  |  |  |  |  |  | IC50, HIV-1 BaL (R5), PBMC [8]: > 666 nM; IC50, HIV-1 NL4.3 (X4), MT-4 [8]: 14.9 nM; IC50, HIV-1 NL4.3 (X4), PBMC [8]: 17 nM; IC50, HIV-1 NL4.3 (X4), U87 [8]: > 3330 nM
B13 |  |  |  |  |  |  | Kd [10]: 1.9 nM; koff [10]: 0.0025 s⁻¹; kon [10]: 1.3e+06 M⁻¹ s⁻¹

Source: patent US20160251440A1 (Ablynx, published 2016)
